Results reported in PMC11006913.

Legend:
Assay in all cases: PBM
SHOX R173C (human) = conditions: contrastQ 1.38E-15; Universal PBM, 200 nM protein in PBS; temperature and pH not stated in the material
HOXD13 T313R (human) = conditions: contrastQ 1.85E-52; Universal PBM, 200 nM protein in PBS; temperature and pH not stated in the material
HESX1 N125S (human) = conditions: Universal PBM, 200 nM protein in PBS, temperature and pH not stated in the material
HESX1 E149K (human) = conditions: contrastQ 9.83E-08; Universal PBM, 200 nM protein in PBS; temperature and pH not stated in the material
HESX1 R109Q (human) = conditions: contrastQ 1.24E-92; Universal PBM, 200 nM protein in PBS; temperature and pH not stated in the material
HESX1 R160C (human) = conditions: contrastQ 1.53E-116; Universal PBM, 200 nM protein in PBS; temperature and pH not stated in the material
PROP1 F88S (human) = conditions: contrastQ 3.19E-277; Universal PBM, 200 nM protein in PBS; temperature and pH not stated in the material
PROP1 R99Q (human) = conditions: contrastQ 2.52E-38; Universal PBM, 200 nM protein in PBS; temperature and pH not stated in the material
NKX2-5 K183E (human) = conditions: Universal PBM, 200 nM protein in PBS, temperature and pH not stated in the material
ARX L343Q (human) = conditions: contrastQ 3.05E-194; Universal PBM, 200 nM protein in PBS; temperature and pH not stated in the material
ARX P353R (human) = conditions: Universal PBM, 200 nM protein in PBS; temperature and pH not stated in the material
ARX T333N (human) = conditions: contrastQ 5.30E-28; Universal PBM, 200 nM protein in PBS; temperature and pH not stated in the material
HOXD13 I322L (human) = conditions: Universal PBM, 200 nM protein in PBS, temperature and pH not stated in the material
HOXD13 S316C (human) = conditions: contrastQ 0.9698003 (no significant change); Universal PBM, 200 nM protein in PBS; temperature and pH not stated in the material

Question: For PBM 8-mer ATTATAAT, which binding signal (contrast difference vs reference) (SHOX R173C (human)) is on record?
Answer: -1.91

Question: For PBM 8-mer CAATAAAA, which binding signal (contrast difference vs reference) (HOXD13 T313R (human)) is on record?
Answer: -1.23

Question: Which binding signal (contrast difference vs reference) (HESX1 N125S (human); contrastQ 0.7783541 (no significant change)) does the source give for PBM 8-mer CAATTAAA here?
Answer: -0.277

Question: PBM 8-mer CTAATTGA was tested. Which binding signal (contrast difference vs reference) (HESX1 E149K (human)) did it give?
Answer: -0.502

Question: And the binding signal (contrast difference vs reference) (HESX1 N125S (human); contrastQ 0.9069244 (no significant change))?
Answer: -0.172

Question: What about the binding signal (contrast difference vs reference) (HESX1 R109Q (human)) of the same substance?
Answer: -3.4

Question: And the binding signal (contrast difference vs reference) (HESX1 R160C (human))?
Answer: -2.1

Question: What about the binding signal (contrast difference vs reference) (PROP1 F88S (human)) of the same substance?
Answer: -4.12

Question: What about the binding signal (contrast difference vs reference) (PROP1 R99Q (human)) of the same substance?
Answer: -0.687

Question: How did the binding signal (contrast difference vs reference) (NKX2-5 K183E (human); contrastQ 5.13E-38) turn out when PBM 8-mer GCACTTCA was run?
Answer: -1.27

Question: PBM 8-mer GCACTTGA was tested. Which binding signal (contrast difference vs reference) (NKX2-5 K183E (human); contrastQ 1.87E-56) did it give?
Answer: -1.44

Question: With PBM 8-mer GTTAATTA as the substance, how does the binding signal (contrast difference vs reference) (ARX L343Q (human)) read?
Answer: -2.29

Question: And the binding signal (contrast difference vs reference) (ARX P353R (human))?
Answer: -2.42

Question: And the binding signal (contrast difference vs reference) (ARX T333N (human))?
Answer: -0.803

Question: Which results are given for PBM 8-mer TCATAAAA?
Answer: binding signal (contrast difference vs reference) (HOXD13 I322L (human); contrastQ 8.96E-16): -1.15; binding signal (contrast difference vs reference) (HOXD13 S316C (human)): 0.133

Question: Which results are given for PBM 8-mer TCGTAAAA?
Answer: binding signal (contrast difference vs reference) (HOXD13 I322L (human); contrastQ 3.41E-01 (no significant change)): 0.259; binding signal (contrast difference vs reference) (HOXD13 S316C (human)): 0.128
